For 1 molecule, Kd results are on record in article PMC3815026, “Serglycin Is Implicated in the Promotion of Aggressive Phenotype of Breast Cancer Cells” (PLoS ONE, 2013).

Broadly, the Kd is the free concentration of one partner at which half of the binding sites on the other are occupied at equilibrium, for simple one-to-one binding.

The target in assay [1] is T1, C1q (UniProt P02745 23-245; P02746 28-253; P02747 29-245).
T1 construct: complement C1q subcomponent subunit A; complement C1q subcomponent subunit B; complement C1q subcomponent subunit C; also called complement component C1q; purified C1q; source: bought: Sigma-Aldrich; copies: + +
Description: ELISA; solid phase binding assay: microtiter plates coated with 5 µg/ml serglycin (as GAG content), blocked with 1% BSA; C1q or MBL added at increasing concentrations in 50 mM Hepes pH 7.4, 150 mM NaCl, 2 mM CaCl2, 1 h at RT; bound protein detected with antibodies; KD from the slope of a Scatchard-type plot. To be noted: both partners purified. For orientation: In an ELISA, binding on a coated surface is turned into a signal by an enzyme label.

The target in assay [2] is T2, mannose-binding lectin (UniProt P11226 21-248).
T2 construct: Neither the species nor the oligomeric state is stated; Human MBL is surmised; also called MBL; source: bought: Statens Serum Institute (Denmark)
The description is as above. Particulars: both partners purified.

T2 sequence (P11226 21-248): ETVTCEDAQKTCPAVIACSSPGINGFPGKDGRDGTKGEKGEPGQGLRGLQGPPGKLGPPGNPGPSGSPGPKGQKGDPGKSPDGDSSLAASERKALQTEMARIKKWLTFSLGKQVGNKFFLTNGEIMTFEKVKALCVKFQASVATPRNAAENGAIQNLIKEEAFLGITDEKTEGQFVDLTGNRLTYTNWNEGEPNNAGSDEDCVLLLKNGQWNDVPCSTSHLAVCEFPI
T1 sequence (P02745 23-245, chain 1 of 3): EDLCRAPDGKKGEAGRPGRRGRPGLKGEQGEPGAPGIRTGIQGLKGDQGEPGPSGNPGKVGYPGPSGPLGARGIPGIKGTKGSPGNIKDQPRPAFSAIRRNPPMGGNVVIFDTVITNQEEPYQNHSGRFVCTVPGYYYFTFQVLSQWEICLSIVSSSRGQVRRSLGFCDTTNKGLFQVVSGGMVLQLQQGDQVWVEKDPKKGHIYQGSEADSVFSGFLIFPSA
T1 sequence (P02746 28-253, chain 2 of 3): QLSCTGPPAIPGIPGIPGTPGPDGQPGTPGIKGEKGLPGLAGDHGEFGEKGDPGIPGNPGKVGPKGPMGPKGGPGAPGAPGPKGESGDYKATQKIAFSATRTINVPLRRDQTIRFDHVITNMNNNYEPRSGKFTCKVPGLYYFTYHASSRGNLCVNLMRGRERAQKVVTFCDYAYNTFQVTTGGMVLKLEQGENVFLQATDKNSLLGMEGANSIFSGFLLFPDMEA
T1 sequence (P02747 29-245, chain 3 of 3): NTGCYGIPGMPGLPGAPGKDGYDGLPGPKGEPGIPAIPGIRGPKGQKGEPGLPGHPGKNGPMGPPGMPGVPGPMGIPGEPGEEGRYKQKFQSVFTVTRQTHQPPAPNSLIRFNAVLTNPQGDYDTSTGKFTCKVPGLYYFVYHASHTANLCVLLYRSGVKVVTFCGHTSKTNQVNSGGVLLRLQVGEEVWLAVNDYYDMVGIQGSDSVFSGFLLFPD

B1: Serglycin isolated from conditioned medium of MDA-MB-231 breast cancer cells (total glycanated serglycin) (natural protein, human (endogenous in MDA-MB-231), UniProt P10124 28-158, looked up)
chain: YPTRRARYQWVRCNPDSNSANCLEEKGPMFELLPGESNKIPRLRTDLFPKTRIQDLNRIFPLSEDYSGSGFGSGSGSGSGSGSGFLTEMEQDYQLVDESDAFHDNLRSLDRNLPSDSQDLGQHGLEEDFML
modifications: chondroitin sulfate side chains (4-sulfated 87%, 6-sulfated 10%, non-sulfated 3% disaccharides)
notes: serglycin core protein, secreted proteoglycan of ~250-300 kDa, core protein seen at ~28 kDa after chondroitinase ABC; Proteoglycan: GAG content about 94.5% and core protein about 5.5% of the total mass; also called SG; breast cancer-derived serglycin; source: endogenous, secreted by MDA-MB-231 cells; purified from culture medium (DEAE-Sephacel, Sepharose CL-4B)
Regarding B1, the Kd in assay [1] turned out to be 0.02 µM; in assay [2], 0.048 µM.
